Measurements as given in patent US20250207119A1.

Tests used:
Test in all cases: cell-based or functional assay
MMP 12 = MMP 12 (UniProt P39900)
MMP 9 = MMP 9 (UniProt P14780)
MMP 2 = MMP 2 (UniProt P08253)
ADAM9 from R & D Systems = ADAM9 from R & D Systems (UniProt Q13443)
[1] = molecular target: ADAM17 from R & D Systems (UniProt P78536)
[2] = molecular target: Meprin from R & D Systems
MMP 14 = MMP 14 (UniProt P50281)
MMP 3 = MMP 3 (UniProt P08254)
[3] = molecular target: Human ADAM10 from R & D Systems (human) (UniProt O14672)
Chain of Human ADAM10 from R & D Systems (human) (O14672 214-672 limits assumed): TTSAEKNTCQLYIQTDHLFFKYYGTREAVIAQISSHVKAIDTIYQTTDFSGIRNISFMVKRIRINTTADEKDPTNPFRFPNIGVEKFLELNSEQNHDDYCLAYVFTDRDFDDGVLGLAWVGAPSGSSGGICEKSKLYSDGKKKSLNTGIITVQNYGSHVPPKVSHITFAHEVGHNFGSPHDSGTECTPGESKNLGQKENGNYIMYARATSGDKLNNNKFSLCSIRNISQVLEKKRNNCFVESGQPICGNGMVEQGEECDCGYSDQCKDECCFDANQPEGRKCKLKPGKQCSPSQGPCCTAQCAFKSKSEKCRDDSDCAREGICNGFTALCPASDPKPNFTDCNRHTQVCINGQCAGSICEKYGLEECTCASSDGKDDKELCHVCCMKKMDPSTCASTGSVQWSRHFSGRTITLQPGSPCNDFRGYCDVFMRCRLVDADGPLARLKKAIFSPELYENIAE

Chain of MMP 12 (P39900 17-470 limits assumed): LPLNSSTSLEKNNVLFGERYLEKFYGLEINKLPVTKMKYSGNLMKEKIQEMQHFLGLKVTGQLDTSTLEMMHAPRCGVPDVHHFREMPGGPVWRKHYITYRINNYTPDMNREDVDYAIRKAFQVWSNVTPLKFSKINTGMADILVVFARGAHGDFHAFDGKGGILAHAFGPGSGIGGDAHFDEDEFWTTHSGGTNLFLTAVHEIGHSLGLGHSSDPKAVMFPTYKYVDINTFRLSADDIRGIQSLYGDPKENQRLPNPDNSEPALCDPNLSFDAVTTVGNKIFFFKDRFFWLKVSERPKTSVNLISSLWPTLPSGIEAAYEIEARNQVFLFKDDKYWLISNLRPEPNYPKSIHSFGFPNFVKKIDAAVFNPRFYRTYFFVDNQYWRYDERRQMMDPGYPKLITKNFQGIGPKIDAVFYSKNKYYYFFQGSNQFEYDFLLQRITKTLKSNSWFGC
Chain of ADAM9 from R & D Systems (Q13443 29-697 limits assumed): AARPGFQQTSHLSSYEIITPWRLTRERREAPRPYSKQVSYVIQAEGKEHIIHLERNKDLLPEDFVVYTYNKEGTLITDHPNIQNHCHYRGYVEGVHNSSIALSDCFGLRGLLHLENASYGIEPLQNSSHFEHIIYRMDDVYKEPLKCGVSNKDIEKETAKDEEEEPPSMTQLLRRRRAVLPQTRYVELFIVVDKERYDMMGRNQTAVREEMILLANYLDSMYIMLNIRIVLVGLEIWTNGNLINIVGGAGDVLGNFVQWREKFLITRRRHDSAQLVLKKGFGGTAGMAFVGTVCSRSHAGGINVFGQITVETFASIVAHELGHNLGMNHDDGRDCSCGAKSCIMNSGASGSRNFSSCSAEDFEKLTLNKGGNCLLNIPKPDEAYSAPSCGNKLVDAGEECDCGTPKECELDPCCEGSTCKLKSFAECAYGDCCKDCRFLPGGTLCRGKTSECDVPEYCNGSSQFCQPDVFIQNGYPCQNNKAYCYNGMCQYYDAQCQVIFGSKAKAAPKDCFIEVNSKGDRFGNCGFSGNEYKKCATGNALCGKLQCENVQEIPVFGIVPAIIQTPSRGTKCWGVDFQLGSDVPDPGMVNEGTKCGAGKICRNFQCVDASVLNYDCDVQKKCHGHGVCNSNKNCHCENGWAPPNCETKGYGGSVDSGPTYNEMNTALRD
Chain of MMP 9 (P14780 20-707 limits assumed): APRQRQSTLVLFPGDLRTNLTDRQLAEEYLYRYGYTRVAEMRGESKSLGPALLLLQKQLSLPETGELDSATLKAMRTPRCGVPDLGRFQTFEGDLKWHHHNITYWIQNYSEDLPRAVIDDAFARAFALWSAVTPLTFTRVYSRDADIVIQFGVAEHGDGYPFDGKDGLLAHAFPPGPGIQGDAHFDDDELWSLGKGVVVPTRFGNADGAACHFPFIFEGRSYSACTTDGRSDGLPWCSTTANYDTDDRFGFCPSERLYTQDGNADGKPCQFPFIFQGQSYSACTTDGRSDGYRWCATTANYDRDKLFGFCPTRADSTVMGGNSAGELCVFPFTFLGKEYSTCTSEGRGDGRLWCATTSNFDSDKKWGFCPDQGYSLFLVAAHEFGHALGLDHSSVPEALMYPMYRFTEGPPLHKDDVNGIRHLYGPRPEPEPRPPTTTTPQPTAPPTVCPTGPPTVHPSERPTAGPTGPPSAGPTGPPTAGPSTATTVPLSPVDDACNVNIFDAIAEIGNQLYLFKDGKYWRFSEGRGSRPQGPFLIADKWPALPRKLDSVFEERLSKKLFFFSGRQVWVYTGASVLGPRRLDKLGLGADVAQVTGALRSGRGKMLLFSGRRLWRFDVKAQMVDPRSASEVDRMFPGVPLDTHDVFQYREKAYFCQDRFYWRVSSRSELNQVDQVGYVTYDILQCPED
Chain of MMP 2 (P08253 30-660 limits assumed): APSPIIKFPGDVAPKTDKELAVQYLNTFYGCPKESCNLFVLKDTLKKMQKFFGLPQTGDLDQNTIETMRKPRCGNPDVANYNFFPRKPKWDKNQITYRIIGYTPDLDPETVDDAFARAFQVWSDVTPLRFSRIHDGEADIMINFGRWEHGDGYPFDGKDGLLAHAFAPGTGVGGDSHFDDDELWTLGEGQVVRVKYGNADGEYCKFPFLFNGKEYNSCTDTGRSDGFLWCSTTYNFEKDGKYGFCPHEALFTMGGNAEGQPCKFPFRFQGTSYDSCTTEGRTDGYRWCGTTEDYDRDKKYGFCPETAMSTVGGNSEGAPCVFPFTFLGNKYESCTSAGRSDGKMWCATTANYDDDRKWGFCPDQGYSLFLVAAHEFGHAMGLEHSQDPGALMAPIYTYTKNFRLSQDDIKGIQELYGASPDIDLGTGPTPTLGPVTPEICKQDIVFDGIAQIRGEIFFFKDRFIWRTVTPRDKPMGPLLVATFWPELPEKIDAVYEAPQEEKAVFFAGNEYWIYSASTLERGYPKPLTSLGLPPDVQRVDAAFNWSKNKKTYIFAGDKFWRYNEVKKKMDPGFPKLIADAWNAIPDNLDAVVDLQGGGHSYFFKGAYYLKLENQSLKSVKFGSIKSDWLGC
Chain of MMP 3 (P08254 18-477 limits assumed): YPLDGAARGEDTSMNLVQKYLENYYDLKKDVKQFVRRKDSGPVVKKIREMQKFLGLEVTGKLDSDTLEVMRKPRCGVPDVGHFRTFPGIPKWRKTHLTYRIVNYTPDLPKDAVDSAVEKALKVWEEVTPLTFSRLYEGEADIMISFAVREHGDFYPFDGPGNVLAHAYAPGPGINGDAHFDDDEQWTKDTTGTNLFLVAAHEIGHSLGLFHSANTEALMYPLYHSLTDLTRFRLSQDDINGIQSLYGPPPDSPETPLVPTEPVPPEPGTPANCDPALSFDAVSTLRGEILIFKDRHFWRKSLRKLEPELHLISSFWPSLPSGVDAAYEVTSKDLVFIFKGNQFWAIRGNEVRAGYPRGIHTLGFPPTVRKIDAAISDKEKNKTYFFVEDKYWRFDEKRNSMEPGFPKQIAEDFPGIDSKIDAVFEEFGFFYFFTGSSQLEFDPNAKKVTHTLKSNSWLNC
Chain of ADAM17 from R & D Systems (P78536 215-671 limits assumed): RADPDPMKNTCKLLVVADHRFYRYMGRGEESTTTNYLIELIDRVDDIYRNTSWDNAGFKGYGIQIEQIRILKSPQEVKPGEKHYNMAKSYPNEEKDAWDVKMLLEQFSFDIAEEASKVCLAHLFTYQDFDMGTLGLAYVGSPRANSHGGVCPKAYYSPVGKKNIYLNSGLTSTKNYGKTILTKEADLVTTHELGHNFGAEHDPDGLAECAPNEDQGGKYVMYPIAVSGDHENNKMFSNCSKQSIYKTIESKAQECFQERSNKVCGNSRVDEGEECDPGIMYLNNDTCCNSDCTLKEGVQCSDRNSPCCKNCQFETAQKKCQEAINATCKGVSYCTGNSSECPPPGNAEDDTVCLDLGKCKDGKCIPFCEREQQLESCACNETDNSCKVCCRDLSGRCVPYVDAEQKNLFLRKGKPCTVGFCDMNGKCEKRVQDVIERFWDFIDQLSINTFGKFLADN

percent inhibition of MMP activity (PEPDAB008 substrate) (MMP 12): 0 % at 8 µM
percent inhibition of MMP activity (PEPDAB008 substrate) (MMP 9): 0 % at 8 µM
percent inhibition of MMP activity (PEPDAB008 substrate) (MMP 2): 0 % at 8 µM
percent inhibition of ADAM9 activity (ADAM9 from R & D Systems): 0 % at 8 µM
percent inhibition of ADAM17 activity [1]: 28 % at 8 µM
IC50 (nM), inhibition of meprin cleavage of the fluorescent substrate PEPDAB022 [2]: 185 nM
percent inhibition of MMP activity (PEPDAB008 substrate) (MMP 14): 0 % at 8 µM
percent inhibition of MMP activity (PEPDAB008 substrate) (MMP 3): 0 % at 8 µM
IC50 (nM), inhibition of ADAM10 cleavage of the fluorescent substrate PEPDAB064 [3]: 17 nM
Substance: SEQ ID NO: 1 (human wild type ADAM10 prodomain peptide, amino acids 23-211 of NP_001101.1)
